From patent US20250002564A1 (HOSPITAL FOR SICK CHILDREN, published 2025)
Read-outs that look alike come from different tables or passages of the source.

Tests used:
[1] = target: T1, SARS-CoV-2 receptor binding domain (RBD), wild type, His-tagged (SARS-CoV-2, UniProt P0DTC2 319-541); experiment: BLI competition on His-tagged RBD, after 1st Ab 324
T1 construct: domain: RBD; also called His-tagged RBD; BEI NR52309

[2] = target: T1, SARS-CoV-2 receptor binding domain …; experiment: BLI competition on His-tagged RBD, after 1st Ab 298
[3] = target: T2, SARS-CoV-2 RBD mutant L452R (SARS-CoV-2, UniProt P0DTC2 319-541); experiment: BLI, IgG on mutated RBD compared with WT RBD; negative = decreased
T2 construct: domain: RBD; also called mutated RBD L452R

[4] = target: T1, SARS-CoV-2 receptor binding domain …; experiment: BLI competition on His-tagged RBD, after 1st Ab 52
[5] = target: T1, SARS-CoV-2 receptor binding domain …; experiment: BLI competition on His-tagged RBD, after 1st Ab 82
[6] = target: T1, SARS-CoV-2 receptor binding domain …; experiment: method and format not given
[7] = target: T1, SARS-CoV-2 receptor binding domain …; experiment: BLI competition on His-tagged RBD, after 1st Ab 80
[8] = target: T1, SARS-CoV-2 receptor binding domain …; experiment: method and format not given; remark: listed apart in the source
[9] = target: T1, SARS-CoV-2 receptor binding domain …; experiment: BLI competition on His-tagged RBD, after 1st Ab 236
[10] = target: T1, SARS-CoV-2 receptor binding domain …; experiment: BLI competition on His-tagged RBD, after 1st Ab 46

B1: mAb 236 (antibody, V domains shown)
VH: QVQLVQSGAEVKKPGASVKVSCKASGGTFTSYGINWVRQAPGQGLEWMGWMNPNSGNTGYAQKFQGRVTMTRDTSTSTVYMELSSLRSEDTAVYYCASRGIQLLPRGMDVWGQGTTVTVSS
VL: not shown
notes: also called IgG 236; Antibody 236
[1]
  RBD binding of 2nd Ab after 1st Ab (heat map): 0.4
[2]
  RBD binding of 2nd Ab after 1st Ab (heat map): 0.2
[3]
  Affinity change vs WT RBD (fold-change): -4.1
[4]
  RBD binding of 2nd Ab after 1st Ab (heat map): 1
[5]
  RBD binding of 2nd Ab after 1st Ab (heat map): 0.2
[6]
  Kd: 145 nM
[7]
  RBD binding of 2nd Ab after 1st Ab (heat map): 0.1
[8]
  Kd: 145 nM
[9]
  RBD binding of 2nd Ab after 1st Ab (heat map): 0.3
[10]
  RBD binding of 2nd Ab after 1st Ab (heat map): 1.2
